Experimental data reported in patent publication US20070254316.

Key:
[1] = test system: T1, R4-C9 peptide (free peptide, CTLVPHTRC)
T1 sequence: CTLVPHTRC

[2] = test system: T2, R5-XC1 peptide (free peptide, CQKHHNYLC)
T2 sequence: CQKHHNYLC

**Q.** How did the “NAALADase activity (hydrolysis of N-acetyl-L-aspartyl-L-[3,4-3H]glutamate by purified xPSM)” value [1] turn out when “xPSM (extracellular portion of human PSMA, Tag-xPSM digested with enterokinase, no affinity tags)” was run?
**A.** two selected PSMA binding peptides enhanced, rather than inhibited, enzyme activity in a dose dependant manner

**Q.** And the “NAALADase activity (hydrolysis of N-acetyl-L-aspartyl-L-[3,4-3H]glutamate by purified xPSM)” value [2]?
**A.** two selected PSMA binding peptides enhanced, rather than inhibited, enzyme activity in a dose dependant manner
